The labels stand for the following.
B1: scFv 2H1 (scFv)
scFv: QQVQLVQSGAEVKKPGESLKISCKGSGYSFTSYWIGWVRQMPGKGLEWMGIIYPGDSDTRYSPSFQGQVTISADKSISTAYLQWSSLKASDTAMYYCARLVVRDTEIWGQGTMVTVSSAPQAKSSGSGSESKVDQAVVTQEPSLTVSPGGTVTLTCASSIGAVTSGNYPNWFQQRPGQPPRALIYSTSNKHSWTPARFSGSLLGGKAALTLSGAQPEDEAEYYCLLSYSGARPVFGGGTKLTVLGAAAGSEQKLISEEDLNSHHHHHH
notes: Made in E. coli from pACR.1-scFv 2H1, purified by IMAC; also called scFv 2H1 fragment; bacterial scFv 2H1

Experiment [1] has as its target T1, Isoform 120 of mouse VEGF-A (R&D) (mouse, UniProt Q00731-3 27-146).
T1 construct: also called isoform 120 of murine VEGF
T1 sequence (looked up): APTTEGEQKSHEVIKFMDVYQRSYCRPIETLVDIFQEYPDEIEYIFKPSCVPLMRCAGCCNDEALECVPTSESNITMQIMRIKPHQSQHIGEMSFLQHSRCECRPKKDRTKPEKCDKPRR
Put plainly: ELISA on coated antigen (Table 6). Background: In an ELISA, binding on a coated surface is turned into a signal by an enzyme label.

The experiment “scFv 2H1” concerns the target B1. Put plainly: phage ELISA on coated scFv 2H1.
The target in experiment [2] is T1, Isoform 120 of mouse VEGF-A (R&D). Put plainly: phage ELISA; + means OD at least 5 times the negative control.
Experimental: The latter was immobilized in a 96-well Maxisorp (Nunc) immunoplate at a concentration of 1 μg/ml in PBS, during 16 h at 4° C. The plate was blocked at 22° C. with PBS-milk 4% during 1 h.
After blocking the plates, the phages purified as described above and diluted in PBS-skimmed milk 4% were added and incubated for 1 h at 22° C. After several washes, the bound phages were detected with anti-M13 peroxidase conjugated antibodies. […] As negative control, a sample of the mixture of phages of the unselected library was used, precipitated as described above.
Experiment [3] has the same target. Description: ELISA on coated antigen (Table 7).
Experimental: The purified Fab fragment was evaluated for its capacity of recognizing human VEGF using an ELISA assay. […] The purified Fab fragment was diluted and incubated for 1 h at 22° C.

Turning to B1, the binding result in experiment [1] is “no binding (tested: 20 µg/mL)”.

B2: peptide CCRTLMLLQYHR displayed in filamentous phage (peptide)
peptide: CCRTLMLLQYHR
notes: Tested as phage; also called peptide phage clones
Turning to B2, in the experiment with scFv 2H1, the binding result is reported as “binds”.

B3: phage clone 2H1-F (scFv)
scFv: QQVQLVQSGAEVKKPGESLKISCKGSGYSFTSYWIGWVRQMPGKGLEWMGIIYPGDSDTRYSPSFQGQVTISADKSISTAYLQWSSLKASDTAMYYCARLVVRDTEIWGQGTMVTVSSAPQAKSSGSGSESKVDQAVVTQEPSLTVSPGGTVTLTCASSIGAVTSGNYPNWFQQRPGQPPRALIYSTSNKHSWTPARFSGSLLGGKAALTLSGAQPEDEAEYYCLLSYSGARPVFGGGTKLTVLG
modifications: Displayed on filamentous phage, fused to a coat protein that the letters do not carry.
notes: Tested as phage; also called scFv 2H1-F; original phage scFv (2H1-F); not shown: phage coat protein of the phagemid display format, with any tag or junction residues before it
For the molecule B3, in experiment [2], the binding result is “no binding”.

B4: Fab 2H1-32 (Fab, V domains shown)
VH: QVQLVQSGAEVKKPGESLKISCKGSGYSFTSYWIGWVRQMPGKGLEWMGIIYPGDSDTRYSPSFQGQVTISADKSISTAYLQWSSLKASDTAMYYCARLVVRDTEIWGQGTMVTVSS
VL: QAVVTQEPSLTVSPGGTVTLTCASSIGAVTSGNYPNWFQQRPGQPPRALIYSTSNKHSWTPARFSGSLLGGKAALTLSGAQPEDEAEYYCLLSYSGARPVFGGGTKLTVLG
notes: Made in E. coli, purified by IMAC, purity close to 85%; also called Fab fragment 2H1-32; Fab produced in E. coli
On to B4, for which the binding result in experiment [3] was “no binding (tested: 20 µg/mL)”.

For the origin of these results see patent publication US20100151566A1 (published 2010).
